Biological target: PKA regulatory subunit RIIα (human (endogenous in SK-Br-3)) (UniProt P13861)
Assay: proximity ligation

Sequence of PKA regulatory subunit RIIα (human (endogenous in SK-Br-3)) (P13861 whole entry): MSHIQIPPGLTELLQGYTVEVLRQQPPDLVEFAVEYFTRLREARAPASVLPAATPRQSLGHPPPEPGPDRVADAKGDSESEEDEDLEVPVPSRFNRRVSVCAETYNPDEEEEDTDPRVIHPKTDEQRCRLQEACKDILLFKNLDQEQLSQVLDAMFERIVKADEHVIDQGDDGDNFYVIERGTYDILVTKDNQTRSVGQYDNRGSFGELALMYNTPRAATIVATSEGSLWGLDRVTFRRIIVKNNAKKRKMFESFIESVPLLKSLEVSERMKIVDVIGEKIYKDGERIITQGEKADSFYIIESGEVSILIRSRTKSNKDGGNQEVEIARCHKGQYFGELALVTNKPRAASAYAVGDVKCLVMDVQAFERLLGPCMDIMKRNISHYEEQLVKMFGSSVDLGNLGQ

PKA catalytic subunit (PKAc) (from UniProt P17612 1-351) (enzyme)
decrease of CICF in SK.tDp^T39A against SK.empty cells: 67% | increase of CICF in SK.tDp against SK.empty cells: 36%
